B1: 241 (protein)
chain: LDNGLARTPTMGWLHWERFMCNLDCQEEPDSCISEKLFMEMAELMVSEGWKDAGYEYLCIDDCWMAPQRDSEGRLQADPQRFPHGIRQLANYVHSKGLKLGIYADVGNKTCAGFPGSFGYYDIDAQTFADWGVDLLKFDGCYCDSLENLADGYKHMSLALNRTGRSIVYSCEWPLYMWPFQKPNYTEIRQYCNHWRNFADIDDSWASIKSILDWTSFNQERIVDVAGPGGWNDPDMLVIGNFGLSWDQQVTQMALWAIMAAPLFMSNDLRHISPQAKALLQDKDVIAINQDPLGKQGYQLRQGDNFEVWERPLSGLAWAVAVINRQEIGGPRSYTIAVASLGDGVACNPACFITQLLPVKRKLGFYEWTSRLKSHVNPTGTVLLQLENTMQMSLKDLL
modifications: Synthetic Polypeptide sequence of Variant No. 241 of mature Human GLA
B2: 245 (protein)
chain: LDNGLARTPTMGWLHWERFMCNLDCQEEPDSCISEKLFMEMAELMVSEGWKDAGYEYLCIDDCWMAPQRDSEGRLQADPQRFPHGIRQLANYVHSKGLKLGIYADVGNKTCAGFPGSFGYYDIDAQTFADWGVDLLKFDGCYCDSLENLADGYKHMSLALNRTGRSIVYSCEWPLYMWPFQKPNYTEIRQYCNHWRNFADIDDSWASIKSILDWTSFNQERIVDVAGPGGWNDPDMLVIGNFGLSWDQQVTQMALWAIMAAPLFMSNDLRHISPQAKALLQDKDVIAINQDPLGKQGYQLRKGDNFEVWERPLSGLAWAVAVINRQEIGGPRSYTIAVASLGKGVACNPACFITQLLPVKRKLGLYEWTSRLKSHVNPTGTVLLQLENTMQMSLKDLL
modifications: Synthetic Polypeptide sequence of Variant No. 245 of mature Human GLA
B3: 242 (protein)
chain: LDNGLARTPTMGWLHWERFMCNLDCQEEPDSCISEKLFMEMAELMVSEGWKDAGYEYLCIDDCWMAPQRDSEGRLQADPQRFPHGIRQLANYVHSKGLKLGIYADVGNKTCAGFPGSFGYYDIDAQTFADWGVDLLKFDGCYCDSLENLADGYKHMSLALNRTGRSIVYSCEWPLYMWPFQKPNYTEIRQYCNHWRNFADIDDSWASIKSILDWTSFNQERIVDVAGPGGWNDPDMLVIGNFGLSWDQQVTQMALWAIMAAPLFMSNDLRHISPQAKALLQDKDVIAINQDPLGKQGYQLRQGDNFEVWERPLSGLAWAVAVINRQEIGGPRSYTIAVASLGGGVACNPACFITQLLPVKRKLGLYEWTSRLKSHINPTGTVLLQLENTMQMSLKDLL
modifications: Synthetic Polypeptide sequence of Variant No. 242 of mature Human GLA
B4: 243 (protein)
chain: LDNGLARTPTMGWLHWERFMCNLDCQEEPDSCISEKLFMEMAELMVSEGWKDAGYEYLCIDDCWMAPQRDSEGRLQADPQRFPHGIRQLANYVHSKGLKLGIYADVGNKTCAGFPGSFGYYDIDAQTFADWGVDLLKFDGCYCDSLENLADGYKHMSLALNRTGRSIVYSCEWPLYMWPFQKPNYTEIRQYCNHWRNFADIDDSWASIKSILDWTSFNQERIVDVAGPGGWNDPDMLVIGNFGLSWDQQVTQMALWAIMAAPLFMSNDLRHISPQAKALLQDKDVIAINQDPLGKQGYQLRKGDNFEVWERPLSGLAWAVAMINRQEIGGPRSYTIPVASLGGGVACNPGCFITQLLPVKRKLGFYEWTSRLRSHINPTGTVLLQLENTMQMSLKDLL
modifications: Synthetic Polypeptide sequence of Variant No. 243 of mature Human GLA
B5: 246 (protein)
chain: LDNGLARTPTMGWLHWERFMCNLDCQEEPDSCISEKLFMEMAELMVSEGWKDAGYEYLCIDDCWMAPQRDSEGRLQADPQRFPHGIRQLANYVHSKGLKLGIYADVGNKTCAGFPGSFGYYDIDAQTFADWGVDLLKFDGCYCDSLENLADGYKHMSLALNRTGRSIVYSCEWPLYMWPFQKPNYTEIRQYCNHWRNFADIDDSWASIKSILDWTSFNQERIVDVAGPGGWNDPDMLVIGNFGLSWNQQVTQMALWAIMAAPLFMSNDLRHISPQAKALLQDKDVIAINQDPLGKQGYQLRKGDNFEVWERPLSGDAWAVAMINRQEIGGPRSYTIPVASLGKGVACNPACFITQLLPVKRKLGFYEWTSRLRSHINPTGTVLLQLENTMQMSLKDLL
modifications: Synthetic Polypeptide sequence of Variant No. 246 of mature Human GLA
B6: 244 (protein)
chain: LDNGLARTPTMGWLHWERFMCNLDCQEEPDSCISEKLFMEMAELMVSEGWKDAGYEYLCIDDCWMAPQRDSEGRLQADPQRFPHGIRQLANYVHSKGLKLGIYADVGNKTCAGFPGSFGYYDIDAQTFADWGVDLLKFDGCYCDSLENLADGYKHMSLALNRTGRSIVYSCEWPLYMWPFQKPNYTEIRQYCNHWRNFADIDDSWASIKSILDWTSFNQERIVDVAGPGGWNDPDMLVIGNFGLSWDQQVTQMALWAIMAAPLFMSNDLRHISPQAKALLQDKDVIAINQDPLGKQGYQLRKGDNFEVWERPLSGDAWAVAMINRQEIGGPRSYTIAVASLGKGVACNPGCFITQLLPVKRKLGFYEWTSRLRSHINPTGTVLLQLENTMQMSLKDLL
modifications: Synthetic Polypeptide sequence of Variant No. 244 of mature Human GLA

Tests used:
Format in all cases: biochemical
[1] = HTP-analysis of supernatants pretreated with acid (MUGal hydrolysis); conditions: challenge at pH 4.2; activity of the variant/activity of Rd2BB (SEQ ID NO: 10); yeast culture supernatant
Summary of the method: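 GLA variants were secreted from INVSc1 yeast grown 66-84 h at 30° C. in SD-Ura with 2% glucose; supernatants were mixed with McIlvaine buffer pH 3.3-4.3 and held at 37° C. for 1-3 h. Residual activity on MUGal at pH 4.8 was then measured by fluorescence.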

[2] = HTP-analysis of yeast culture supernatants, no challenge (MUGal hydrolysis); conditions: activity of the variant/activity of Rd2BB (SEQ ID NO: 10), yeast culture supernatant
Summary of the method: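 GLA variants expressed in yeast INVSc1, secreted into SD-Ura broth over 66-84 h at 30° C; clarified supernatants tested without challenge. Supernatant mixed with McIlvaine buffer pH 4.8 and 2 mM MUGal (citrate/KCl, pH 4.6), 37° C for 30-180 min, carbonate-quenched, fluorescence Ex 355/Em 448 nm.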

[3] = HTP-analysis of supernatants pretreated with bovine serum (MUGal hydrolysis); conditions: activity of the variant/activity of Rd2BB (SEQ ID NO: 10), yeast culture supernatant
Description: Yeast (INVSc1) cells transformed with vectors expressing GLA and GLA variants using the lithium acetate method were selected on SD-Ura agar plates. After 72 h incubation at 30° C. colonies were placed into the wells of Axygen® 1.1 ml 96-well deep well plates filled with 200 μl/well SD-Ura broth (2 g/L SD-Ura, 6.8 g/L yeast nitrogen base without amino acids [Sigma Aldrich]), 3.06 g/L sodium dihydrogen phosphate, 0.804 g/L disodium hydrogen phosphate, pH 6.0 supplemented with 6% glucose. The cells were allowed to grow for 20-24 hours in a Kuhner shaker (250 rpm, 30° C., and 85% relative humidity). Overnight culture samples (20 μL) were transferred into Corning Costar® 96-well deep plates filled with 380 µL of SD-ura broth supplemented with 2% glucose. The plates were incubated for 66-84 h in a Kuhner shaker (250 rpm, 30° C., and 85% relative humidity). The cells were then pelleted (4000 rpm×20 min), and the supernatants isolated and stored at 4° C. prior to analysis.
GLA variants were challenged with bovine serum to simulate the conditions the variants encounter following infusion into a patient. First, 20 μL of yeast culture supernatant and 80 μL, of bovine serum were added to the wells of a 96-well round bottom plate. The plates were sealed and incubated at 37° C. for 1 h. For the assay, 50 μL of serum-challenged sample was mixed with 25 μL, of 1 M citrate buffer pH 4.3 and 25 μL, of 4 mM MUGal in McIlvaine buffer pH 4.8. The reactions were mixed briefly and incubated at 37° C. for 180 minutes, prior to quenching with 100 μL, of 1 M sodium carbonate. Hydrolysis was analyzed using a SpectraMax® M2 microplate reader monitoring fluorescence (Ex. 355 nm, Em. 448 nm).

[4] = HTP-analysis of supernatants pretreated with base (MUGal hydrolysis); conditions: challenge at pH 7.6; activity of the variant/activity of Rd2BB (SEQ ID NO: 10); yeast culture supernatant
Summary of the method: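 GLA variants secreted from yeast INVSc1; culture supernatants pre-incubated with McIlvaine buffer pH 7.0–8.2 or 200 mM bicarbonate pH 9.1–9.7 at 37° C. for 1–18 h. Residual activity: MUGal (4 mM stock) hydrolysis at pH 4.3–4.8, 37° C., 30–180 min, carbonate quench; fluorescence Ex 355/Em 448 nm.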

Molecule	Relative Activity of GLA Variants After Challenge at pH 4.2 [1]	Relative Activity of GLA Variants After No Challenge (NC) [2]	Relative Activity of GLA Variants After Challenge with Serum [3]	Relative Activity of GLA Variants After Challenge at pH 7.6 [4]
B1	+++ (+++ = >2.5 relative activity over Rd2BB (SEQ ID NO: 10))	++ (++ = 1.5 to 2.5 relative activity over Rd2BB (SEQ ID NO: 10))	++ (++ = 1.5 to 2.5 relative activity over Rd2BB (SEQ ID NO: 10))	+++ (+++ = >2.5 relative activity over Rd2BB (SEQ ID NO: 10))
B2	+++ (+++ = >2.5 relative activity over Rd2BB (SEQ ID NO: 10))	++ (++ = 1.5 to 2.5 relative activity over Rd2BB (SEQ ID NO: 10))	++ (++ = 1.5 to 2.5 relative activity over Rd2BB (SEQ ID NO: 10))	+++ (+++ = >2.5 relative activity over Rd2BB (SEQ ID NO: 10))
B3	+++ (+++ = >2.5 relative activity over Rd2BB (SEQ ID NO: 10))	+++ (+++ = >2.5 relative activity over Rd2BB (SEQ ID NO: 10))	+++ (+++ = >2.5 relative activity over Rd2BB (SEQ ID NO: 10))	+++ (+++ = >2.5 relative activity over Rd2BB (SEQ ID NO: 10))
B4	+++ (+++ = >2.5 relative activity over Rd2BB (SEQ ID NO: 10))	+++ (+++ = >2.5 relative activity over Rd2BB (SEQ ID NO: 10))	+++ (+++ = >2.5 relative activity over Rd2BB (SEQ ID NO: 10))	+++ (+++ = >2.5 relative activity over Rd2BB (SEQ ID NO: 10))
B5	+++ (+++ = >2.5 relative activity over Rd2BB (SEQ ID NO: 10))	+++ (+++ = >2.5 relative activity over Rd2BB (SEQ ID NO: 10))	+++ (+++ = >2.5 relative activity over Rd2BB (SEQ ID NO: 10))	+++ (+++ = >2.5 relative activity over Rd2BB (SEQ ID NO: 10))
B6	+++ (+++ = >2.5 relative activity over Rd2BB (SEQ ID NO: 10))	+++ (+++ = >2.5 relative activity over Rd2BB (SEQ ID NO: 10))	+++ (+++ = >2.5 relative activity over Rd2BB (SEQ ID NO: 10))	+++ (+++ = >2.5 relative activity over Rd2BB (SEQ ID NO: 10))

— US11278600B2, “Human alpha-galactosidase variants” (Codexis, Inc., priority 2014, dated 2022)
